Measured values published in publication PMC12802937 (Nucleic Acids Research, 2026).
Positions count from the first letter of the chain named. Numbers in names are those of the source.

T1: Bre1, 6× histidine tag, purified (budding yeast, UniProt Q07457 1-700)
T1 construct: Bre1, budding yeast; the BRE1 gene inserted into pET26b; source: E. coli BL21 Rosetta (DE3), purified (Ni-NTA, heparin, gel filtration)
T1 sequence (looked up): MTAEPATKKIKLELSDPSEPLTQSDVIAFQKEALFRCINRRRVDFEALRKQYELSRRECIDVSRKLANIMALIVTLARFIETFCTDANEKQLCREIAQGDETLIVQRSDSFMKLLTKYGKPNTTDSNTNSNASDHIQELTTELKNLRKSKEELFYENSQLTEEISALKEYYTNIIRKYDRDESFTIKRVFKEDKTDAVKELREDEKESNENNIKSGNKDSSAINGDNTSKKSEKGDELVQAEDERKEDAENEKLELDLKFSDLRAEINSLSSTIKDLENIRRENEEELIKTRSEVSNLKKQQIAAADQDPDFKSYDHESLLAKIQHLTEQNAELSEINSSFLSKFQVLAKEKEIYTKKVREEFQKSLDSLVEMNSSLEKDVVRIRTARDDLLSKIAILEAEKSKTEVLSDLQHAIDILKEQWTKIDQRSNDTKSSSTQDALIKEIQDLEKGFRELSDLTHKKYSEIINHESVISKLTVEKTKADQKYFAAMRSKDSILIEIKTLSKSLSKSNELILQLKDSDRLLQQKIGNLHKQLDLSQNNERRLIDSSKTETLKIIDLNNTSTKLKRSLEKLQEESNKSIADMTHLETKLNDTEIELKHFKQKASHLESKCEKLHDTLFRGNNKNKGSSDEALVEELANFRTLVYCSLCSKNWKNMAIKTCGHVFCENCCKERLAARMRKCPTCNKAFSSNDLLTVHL

T2: Bre1-LR (Bre1 residues 227–700, LBD and RING domains), 6× histidine tag (budding yeast, UniProt Q07457 227-700)
T2 construct: two Bre1 polypeptides form the dimeric coiled-coils of the LBD in the crystal structure; also called WT; source: E. coli BL21 Rosetta (DE3), purified (Ni-NTA, heparin, gel filtration)
T2 sequence (looked up): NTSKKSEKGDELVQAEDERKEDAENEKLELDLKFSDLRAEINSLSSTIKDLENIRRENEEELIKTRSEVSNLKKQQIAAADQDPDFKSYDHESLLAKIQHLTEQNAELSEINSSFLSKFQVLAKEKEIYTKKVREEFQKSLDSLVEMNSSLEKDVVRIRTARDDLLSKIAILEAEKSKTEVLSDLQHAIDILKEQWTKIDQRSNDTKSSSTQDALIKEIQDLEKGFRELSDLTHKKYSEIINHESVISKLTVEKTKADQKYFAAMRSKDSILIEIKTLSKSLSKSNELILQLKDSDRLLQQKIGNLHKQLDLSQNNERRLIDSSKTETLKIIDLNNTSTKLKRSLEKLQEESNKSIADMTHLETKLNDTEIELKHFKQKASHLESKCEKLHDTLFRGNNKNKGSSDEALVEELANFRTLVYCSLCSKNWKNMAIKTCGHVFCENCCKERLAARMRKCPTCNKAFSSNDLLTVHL

B1: intein-CBD-tagged WAC-CT (WAC residues 570–647) (domain or fragment, human, UniProt Q9BTA9 570-647, looked up)
chain: HVQGWPADHAEKQASRLREEAHNMGTIHMSEICTELKNLRSLVRVCEIQATLREQRILFLRQQIKELEKLKNQNSFMV
notes: WAC, human, residues 570-647; purified on Ni-NTA although no histidine tag is named; also called intein-WAC; WT; source: purified (Ni-NTA, heparin, gel filtration)
B2: intein-WAC S1 (D577K/E580K/R587E) (domain or fragment, human, UniProt Q9BTA9 570-647, looked up)
chain: B1 chain with D8K, E11K, R18E
notes: WAC, human, residues 570-647; source: purified (Ni-NTA, heparin, gel filtration)
B3: intein-WAC S4 (R630E) (domain or fragment, human, UniProt Q9BTA9 570-647, looked up)
chain: B1 chain with R61E
notes: as for B2
B4: intein-WAC S5 (E635K/E637K/K640E) (domain or fragment, human, UniProt Q9BTA9 570-647, looked up)
chain: B1 chain with E66K, E68K, K71E
notes: as for B2
B5: intein-WAC S3 (R622E/E623K/R625E) (domain or fragment, human, UniProt Q9BTA9 570-647, looked up)
chain: B1 chain with R53E, E54K, R56E
notes: as for B2
B6: intein-WAC S2 (E604K/K606E/R609E/R613E/E616K) (domain or fragment, human, UniProt Q9BTA9 570-647, looked up)
chain: B1 chain with E35K, K37E, R40E, R44E, E47K
notes: as for B2
B7: Lge1, 6× histidine tag, purified (natural protein, budding yeast, UniProt Q02796 1-332, looked up)
chain: MSGYTGNNYSRYSSTPPRQRGGYHHARRSRGGAGGSYYRGGNASYGARYNSDYEQPPQEGDLRQTGAYYRNGYTDTRPYYSANSRHYQAQPSPRYNNGTNSYHLPQRGNSQDTNGRTTSASQEDNDEKRVKSRYRNMQADHPRQQPMSVGSTSSRNGSSGNSSTSSTSNGLPPPPSVSSITNNRSYHSSAYPYSSSHTYNNYHHRETPPPPPSNGYYAKGYPVHVPENRSNSDGSSSSVVKKKRILDMKDSPFIYLTDFDKNVKKTNNTESECEKAREVFKESDSIDSALEELNLKINSNELELRLLNNQCDKHALNIQLTQEKLDSLLLMQ
notes: Lge1, budding yeast; source: E. coli BL21 Rosetta (DE3), purified (Ni-NTA in 8 M urea, urea removed by washing)
B8: Lge1-CT E301K/R305E (domain or fragment, budding yeast, UniProt Q02796 261-332, looked up)
chain: KNVKKTNNTESECEKAREVFKESDSIDSALEELNLKINSNKLELELLNNQCDKHALNIQLTQEKLDSLLLMQ
notes: Lge1, budding yeast, residues 261-332; source: E. coli BL21 Rosetta (DE3): cleared cell extract on chitin resin (pull-down); purified (chitin, heparin, gel filtration) for ITC and SPR
B9: Lge1-CT K324E (domain or fragment, budding yeast, UniProt Q02796 261-332, looked up)
chain: B8 chain with K41E, E45R, K64E
notes: as for B8
B10: Lge1-CT L325N (domain or fragment, budding yeast, UniProt Q02796 261-332, looked up)
chain: B8 chain with K41E, E45R, L65N
notes: as for B8
B11: Lge1-CT I318D (domain or fragment, budding yeast, UniProt Q02796 261-332, looked up)
chain: B8 chain with K41E, E45R, I58D
notes: as for B8
B12: Lge1-CT E303K (domain or fragment, budding yeast, UniProt Q02796 261-332, looked up)
chain: B8 chain with K41E, E43K, E45R
notes: as for B8
B13: Lge1-CT K313E/H314E (domain or fragment, budding yeast, UniProt Q02796 261-332, looked up)
chain: B8 chain with K41E, E45R, K53E, H54E
notes: as for B8
B14: Lge1-CT L320N (domain or fragment, budding yeast, UniProt Q02796 261-332, looked up)
chain: B8 chain with K41E, E45R, L60N
notes: as for B8
B15: Lge1-CT L316N (domain or fragment, budding yeast, UniProt Q02796 261-332, looked up)
chain: B8 chain with K41E, E45R, L56N
notes: as for B8

target: T3, RNF-MD complex (strep-SUMO-RNF20 residues 321–900 with MBP-RNF40 residues 327–926) (human, UniProt Q5VTR2 321-900; O75150 327-926); assay: SPR; RNF-MD immobilised on a CM5 chip, intein-WAC flown over; Biacore 8K, 25°C, 20 mM HEPES (pH 7.5), 200 mM sodium chloride, 0.02% Tween 20; settings: both partners purified
T3 construct: RNF20, human, residues 321-900; RNF40, human, residues 327-926; heterodimer; also called RNF20/RNF40; WT; source: E. coli BL21 Rosetta (DE3), purified from the mixed cell extract (strep-tactin, dextrin, gel filtration); copies: 1 + 1
T3 sequence (Q5VTR2 321-900, chain 1 of 2): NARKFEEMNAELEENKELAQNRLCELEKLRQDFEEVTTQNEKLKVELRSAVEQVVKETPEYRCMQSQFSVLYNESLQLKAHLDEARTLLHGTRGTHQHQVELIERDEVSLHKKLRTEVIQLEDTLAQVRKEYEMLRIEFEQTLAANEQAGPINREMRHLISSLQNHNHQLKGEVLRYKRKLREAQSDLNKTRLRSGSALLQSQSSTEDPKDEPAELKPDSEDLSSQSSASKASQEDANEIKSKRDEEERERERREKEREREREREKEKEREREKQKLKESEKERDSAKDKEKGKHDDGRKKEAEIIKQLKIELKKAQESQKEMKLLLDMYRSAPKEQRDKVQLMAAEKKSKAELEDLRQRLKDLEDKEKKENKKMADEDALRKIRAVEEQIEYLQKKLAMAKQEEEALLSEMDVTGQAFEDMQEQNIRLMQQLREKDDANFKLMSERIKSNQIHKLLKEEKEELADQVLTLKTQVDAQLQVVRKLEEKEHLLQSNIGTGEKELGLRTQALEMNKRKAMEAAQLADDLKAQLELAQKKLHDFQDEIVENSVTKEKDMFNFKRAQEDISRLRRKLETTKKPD
T3 sequence (O75150 327-926, chain 2 of 2): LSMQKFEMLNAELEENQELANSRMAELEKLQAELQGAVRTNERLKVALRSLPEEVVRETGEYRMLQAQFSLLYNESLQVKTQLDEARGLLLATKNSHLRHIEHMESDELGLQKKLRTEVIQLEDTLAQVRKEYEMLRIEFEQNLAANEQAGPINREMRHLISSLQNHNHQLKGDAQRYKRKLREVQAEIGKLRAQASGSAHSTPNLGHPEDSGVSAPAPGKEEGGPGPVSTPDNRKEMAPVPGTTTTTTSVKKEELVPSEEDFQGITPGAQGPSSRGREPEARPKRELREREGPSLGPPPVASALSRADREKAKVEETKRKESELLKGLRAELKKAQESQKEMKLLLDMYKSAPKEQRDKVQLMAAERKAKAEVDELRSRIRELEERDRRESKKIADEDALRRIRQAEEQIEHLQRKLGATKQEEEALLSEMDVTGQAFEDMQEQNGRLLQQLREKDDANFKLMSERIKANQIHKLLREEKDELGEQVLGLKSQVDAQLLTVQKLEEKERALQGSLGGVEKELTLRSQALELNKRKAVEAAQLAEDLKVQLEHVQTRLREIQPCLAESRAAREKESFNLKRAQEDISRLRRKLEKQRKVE

B1 and B2 are within 1.5-fold of each other in Kd: 504 nM for the first, 514 nM for the second.

First: B3
Second: B4
The Kd of the first is 3.7-fold higher: 1190 nM for the first, 325 nM for the second.

B1 and B2 are within 1.5-fold of each other in koff: 0.0234 s⁻¹ for the first, 0.0165 s⁻¹ for the second.

B3 and B4 are within 1.5-fold of each other in koff: 0.0138 s⁻¹ for the first, 0.0143 s⁻¹ for the second.

B1 and B2 are within 1.5-fold of each other in kon: 46400 M⁻¹ s⁻¹ for the first, 32000 M⁻¹ s⁻¹ for the second.

Going from B3 to B4, the kon rises from 11600 M⁻¹ s⁻¹ to 44100 M⁻¹ s⁻¹ (3.8-fold).

target: T4, RNF-MD S3i (E783K/D786K in RNF20 and E449K/K818E in RNF40) (human, UniProt Q5VTR2 321-900; O75150 327-926, E783K | D786K | E449K | K818E); assay: as above; settings: both partners purified
T4 construct: RNF20, human, residues 321-900; RNF40, human, residues 327-926; source: E. coli BL21 Rosetta (DE3), purified from the mixed cell extract (strep-tactin, dextrin, gel filtration); copies: 1 + 1
T4 sequence (Q5VTR2 321-900 E783K/D786K, chain 1 of 2): as the sequence (Q5VTR2 321-900, chain 1 of 2) above, with E463K, D466K counted along it
T4 sequence (O75150 327-926 E449K/K818E, chain 2 of 2): as the sequence (O75150 327-926, chain 2 of 2) above, with E123K, K492E counted along it

In the case of B5, the Kd is reported as 285 nM.

With B5 the koff was 0.00308 s⁻¹.

Work on B5 yielded a kon of 10800 M⁻¹ s⁻¹.

target: T5, RNF-MD S1i (E822K/R826E in RNF20 and K860E in RNF40) (human, UniProt Q5VTR2 321-900; O75150 327-926, E822K | R826E | K860E); assay: as above; settings: both partners purified
T5 construct: RNF20, human, residues 321-900; RNF40, human, residues 327-926; source: E. coli BL21 Rosetta (DE3), purified from the mixed cell extract (strep-tactin, dextrin, gel filtration); copies: 1 + 1
T5 sequence (Q5VTR2 321-900 E822K/R826E, chain 1 of 2): as the sequence (Q5VTR2 321-900, chain 1 of 2) above, with E502K, R506E counted along it
T5 sequence (O75150 327-926 K860E, chain 2 of 2): as the sequence (O75150 327-926, chain 2 of 2) above, with K534E counted along it

With B1 the Kd was 539 nM.

B1 gave a koff of 0.0168 s⁻¹.

B1 was tested, and the kon was 31300 M⁻¹ s⁻¹.

target: T6, RNF-MD S2i (E427K/K804E in RNF20 and E428K/E431K/E434K/R442E/E832K/E835K in RNF40) (human, UniProt Q5VTR2 321-900; O75150 327-926, E427K | K804E | E428K | E431K | E434K | R442E | E832K | E835K); assay: as above; settings: both partners purified
T6 construct: RNF20, human, residues 321-900; RNF40, human, residues 327-926; source: E. coli BL21 Rosetta (DE3), purified from the mixed cell extract (strep-tactin, dextrin, gel filtration); copies: 1 + 1
T6 sequence (Q5VTR2 321-900 E427K/K804E, chain 1 of 2): as the sequence (Q5VTR2 321-900, chain 1 of 2) above, with E107K, K484E counted along it
T6 sequence (O75150 327-926 E428K/E431K/E434K/R442E/E832K/E835K, chain 2 of 2): as the sequence (O75150 327-926, chain 2 of 2) above, with E102K, E105K, E108K, R116E, E506K, E509K counted along it

Work on B6 yielded a Kd of 262 nM.

For B6, the koff was 0.00338 s⁻¹.

For B6, the kon was 12900 M⁻¹ s⁻¹.

target: T1, Bre1, 6× histidine tag, purified; assay: co-sedimentation; 5%–45% sucrose gradient, purified Bre1, Lge1 or their mixture; 20 mM TRIS (pH 7.5), 10 mM potassium chloride, 5 mM magnesium chloride; 27 000 rpm, 15 h, 4°C; settings: both partners purified

B7: binds.

target: T2, Bre1-LR (Bre1 residues 227–700, LBD and …); assay: ITC; Lge1-CT (50–60 μM) injected into Bre1-LR (15 μM); 25°C, 20 mM TRIS (pH 7.5), 200 mM sodium chloride; settings: both partners purified

Compared with B8, B9 is 6.8-fold lower in Kd: 59.7 ± 38.2 nM for the first, 8.77 ± 2.09 nM for the second.

Compared with B10, B11 is 2.6-fold higher in Kd: 8.06 ± 1.52 nM for the first, 21.1 ± 3.7 nM for the second.

Compared with B12, B13 is 3.9-fold lower in Kd: 132 ± 24 nM for the first, 33.9 ± 8.4 nM for the second. The second binds more tightly here.

Compared with B14, B15 is 2.2-fold higher in Kd: 23.7 ± 3.8 nM for the first, 52.2 ± 4.9 nM for the second. The first binds more tightly here.

Compared with B8, B9 is lower in dH: -19.4 ± 2.3 kcal/mol for the first, -48 ± 0.7 kcal/mol for the second.

First: B10
Second: B11
The dH of the first is lower: -61.2 ± 0.6 kcal/mol for the first, -53.6 ± 0.8 kcal/mol for the second.

B12 and B13 are within error of each other in dH: -46.7 ± 2.2 kcal/mol for the first, -43.6 ± 1.1 kcal/mol for the second.

Compared with B14, B15 is lower in dH: -49.9 ± 0.6 kcal/mol for the first, -65.4 ± 0.7 kcal/mol for the second.

Compared with B8, B9 is lower in “stoichiometry N” value: 0.585 ± 0.022 for the first, 0.329 ± 0.001 for the second.

B10 and B11 are within error of each other in “stoichiometry N” value: 0.367 ± 0.001 for the first, 0.37 ± 0.022 for the second.

Compared with B12, B13 is lower in “stoichiometry N” value: 0.587 ± 0.011 for the first, 0.392 ± 0.005 for the second.

First: B14
Second: B15
The “stoichiometry N” value of the first is higher: 0.37 ± 0.002 for the first, 0.293 ± 0.002 for the second.

target: T2, Bre1-LR (Bre1 residues 227–700, LBD and …); assay: SPR; Lge1-CT immobilised on a CM5 chip, Bre1-LR flown over; Biacore 8K, 25°C, 20 mM HEPES (pH 7.5), 200 mM sodium chloride, 0.02% Tween 20; settings: both partners purified

Compared with B8, B9 is 1.6-fold lower in Kd: 81.7 nM for the first, 49.8 nM for the second.

Compared with B10, B11 is 2.8-fold lower in Kd: 58.7 nM for the first, 20.7 nM for the second.

B12 and B13 are within 1.5-fold of each other in Kd: 63.8 nM for the first, 51.8 nM for the second.

B14 and B15 are within 1.5-fold of each other in Kd: 50.8 nM for the first, 62.8 nM for the second.

Compared with B9, B10 is 1.6-fold lower in koff: 0.00509 s⁻¹ for the first, 0.00328 s⁻¹ for the second.

Going from B11 to B13, the koff rises from 0.00155 s⁻¹ to 0.00947 s⁻¹ (6.1-fold).

B14 and B15 are within 1.5-fold of each other in koff: 0.00417 s⁻¹ for the first, 0.00527 s⁻¹ for the second.

First: B9
Second: B10
The kon of the first is 1.8-fold higher: 102000 M⁻¹ s⁻¹ for the first, 55900 M⁻¹ s⁻¹ for the second.

First: B11
Second: B13
The kon of the first is 2.4-fold lower: 74800 M⁻¹ s⁻¹ for the first, 183000 M⁻¹ s⁻¹ for the second.

B14 and B15 are within 1.5-fold of each other in kon: 82000 M⁻¹ s⁻¹ for the first, 84000 M⁻¹ s⁻¹ for the second.
